The text below walks through data of US20030108958A1.

The assay concerns the target AK155 receptor complex (IL-20R1 and IL-10R2), endogenous on human cell lines (human) (UniProt Q9UHF4). The assay is described as follows: cell-based or functional assay.

AK155 receptor complex (IL-20R1 and IL-10R2), endogenous on human cell lines (human), sequence (Q9UHF4 30-553 V259I/L382F limits assumed, chain 1 of 2): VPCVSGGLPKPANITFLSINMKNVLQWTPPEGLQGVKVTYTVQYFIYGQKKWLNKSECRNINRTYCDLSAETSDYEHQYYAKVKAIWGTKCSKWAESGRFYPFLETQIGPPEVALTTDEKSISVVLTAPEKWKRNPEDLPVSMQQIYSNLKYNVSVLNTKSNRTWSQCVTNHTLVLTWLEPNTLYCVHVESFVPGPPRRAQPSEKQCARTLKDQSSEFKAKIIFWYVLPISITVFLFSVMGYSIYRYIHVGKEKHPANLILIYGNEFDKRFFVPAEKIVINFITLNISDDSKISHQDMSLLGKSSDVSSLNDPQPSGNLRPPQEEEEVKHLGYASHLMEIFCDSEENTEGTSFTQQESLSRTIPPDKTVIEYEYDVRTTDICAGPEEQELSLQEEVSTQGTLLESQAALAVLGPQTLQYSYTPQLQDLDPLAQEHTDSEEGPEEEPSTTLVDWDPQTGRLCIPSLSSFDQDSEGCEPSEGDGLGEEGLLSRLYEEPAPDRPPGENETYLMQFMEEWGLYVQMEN
AK155 receptor complex (IL-20R1 and IL-10R2), endogenous on human cell lines (human), sequence (chain, as listed by the source limits assumed, chain 2 of 2): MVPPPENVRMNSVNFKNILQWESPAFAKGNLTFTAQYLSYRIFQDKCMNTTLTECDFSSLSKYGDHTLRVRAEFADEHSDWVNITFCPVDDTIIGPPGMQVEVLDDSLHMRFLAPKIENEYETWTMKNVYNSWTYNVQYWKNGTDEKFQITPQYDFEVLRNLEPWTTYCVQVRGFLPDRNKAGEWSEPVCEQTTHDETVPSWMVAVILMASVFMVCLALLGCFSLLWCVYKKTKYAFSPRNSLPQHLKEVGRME

“AK155 (from UniProt Q9NPH9 22-171) (ligand)”: the IL-8 in supernatant of Colo-205 cells (ELISA), 24 h, with AK155 (without AK155: 552) stood at 670 pg/mL; the IL-8 in supernatant of Colo-205 cells (ELISA), 48 h, with AK155 (without AK155: 623) is 989 pg/mL; the IL-10 in supernatant of Colo-205 cells (ELISA), 24 h, with AK155 (without AK155: 61) was determined as 112 pg/mL; the IL-10 in supernatant of Colo-205 cells (ELISA), 48 h, with AK155 (without AK155: 60) is 94 pg/mL.
